In US20240343811A1 (SHANDONG SIMCERE BIOPHARMACUTICAL, published 2024):
Substitutions are numbered along the chain they refer to. Blank lines part the entries; values can stand above or below the binder they belong to.

Columns and labels:
[1] = target: T1, human CD16a (158F), full length, on FlpinCHO cells (human, UniProt P08637 17-254); experiment: FACS on FlpinCHO cells
Experimental: (§1) The required cells were scale-up cultured in a T-75 cell culture flask to the logarithmic growth phase. The medium was aspirated, and the cells were washed twice with a PBS buffer and then digested with trypsin. After the digestion was terminated, the cells were washed twice with the PBS buffer. The cells were counted, and then the cell pellet was resuspended with a [PBS+2% (w/w) BSA] blocking solution to 2×10⁶ cells/ml, and added to a 96-well FACS reaction plate at 50 μl/well. […] 50 μl/well of the antibody to be detected was added at different concentrations, and incubated on ice for 1 hour. […] The mixture was centrifuged and washed 5 times with PBS, and FACS (FACS Canto II, purchased from BD Company) was used for detection and result analysis. Data analysis was performed by software (CellQuest) to obtain the mean fluorescence intensity (MFI) of the cells. Then, software (GraphPad Prism8) was used for analysis, data fitting and EC50 value calculation.

[2] = target: T2, human CD16a (158V), full length, on cells (human, UniProt P08637 17-254); experiment: FACS on FlpinCHO cells
T2 construct: also used as target for the bought Jurkat-NFAT reporter line stably expressing human CD16a (158V); also called FlpinCHO-human CD16a (158V); FlpinCHO-CD16a (158V)
Experimental: as §1

[3] = target: T3, human CD16b (NA1), full length, on FlpinCHO cells (human, UniProt O75015 17-200); experiment: FACS on FlpinCHO cells
T3 construct: also called FlpinCHO-human CD16b (NA1)
T3 chain: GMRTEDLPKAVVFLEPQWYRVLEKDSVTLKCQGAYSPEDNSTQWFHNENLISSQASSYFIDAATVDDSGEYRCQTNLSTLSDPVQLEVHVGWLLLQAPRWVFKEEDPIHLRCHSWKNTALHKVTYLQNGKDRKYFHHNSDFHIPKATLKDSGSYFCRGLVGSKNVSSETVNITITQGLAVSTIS
Experimental: as §1
(§2) The binding of an antibody to be detected to FlpinCHO-human CD16b cells was detected according to the method of Example 3.1.

[4] = target: T4, human CD16b (NA2), full length, on FlpinCHO cells (human, UniProt O75015 17-200); experiment: FACS on FlpinCHO cells
T4 construct: also called FlpinCHO-human CD16b (NA2)
T4 chain: T3 chain with R20S, N49S, D66N, V90I
Experimental: as §1, §2

[5] = target: T5, CD16 on primary human NK cells (human, UniProt P08637 17-254); experiment: FACS on human NK cells
T5 construct: whole, on cells; also called resting NK cells
Experimental: as §1
The binding of an antibody to be detected to freshly prepared human NK cells (Milestone Biotechnologies, catalog number: PB56-N-Custom) was detected according to the method of Example 3.1.

[6] = target: T2, human CD16a (158V), full length, on …; experiment: cell-based or functional assay
[7] = target: T1, human CD16a (158F), full length, on …; experiment: FACS, biotinylated antibody
Experimental: as §1, with “The” for “The required cells were scale-up cultured in a T-75 cell culture flask to the logarithmic growth phase. The”
(§3) An antibody to be detected was labeled in advance according to the instructions of a biotin labeling kit (EZ-Link™ NHS-PEG4 Biotinylation Kit, purchased from Thermofisher Scientific, catalog number: 21455). […] Detection was performed according to the method of Example 3.1, wherein the biotinylated antibody was detected with fluorescein APC-labeled Streptavidin (High Concentration) (purchased from Biolegend, catalog number: 405243).

[8] = target: T2, human CD16a (158V), full length, on …; experiment: FACS, biotinylated antibody
Experimental: as §1, with “The” for “The required cells were scale-up cultured in a T-75 cell culture flask to the logarithmic growth phase. The”
as §3

Human CD16a (158F)-his = target: T6, Human CD16a (158F)-his (human); experiment: SPR (Biacore), antibody captured on Protein A
T6 construct: entry holds ECD, AVI tag, linker and His tag
Experimental: (§4) A sample buffer and a running buffer were HBS-EP+ (10 mM HEPES, 150 mM NaCl, 3 mM EDTA and 0.05% surfactant P20) (GE Healthcare; BR-1006-69). The flow-through cell was set to 25° C. The sample block was set to 16° C. Both were pretreated with the running buffer. In each cycle, an antibody to be detected was first captured with a Protein A chip, and then a single concentration of CD16 antigen protein was injected. The binding and dissociation processes of the antibody and the antigen protein were recorded, and finally Glycine pH 1.5 (GE Healthcare; BR-1003-54) was used to complete chip regeneration. Binding was measured by injecting different concentrations of recombinant human CD16-ECD his proteins in a solution for 240 s with a flow rate of 30 μL/min, wherein a total of 5 concentrations were prepared by using 200 nM as a starting concentration (see the detailed results for the actual concentration in the test) and performing a 1:1 dilution. The dissociation phase was monitored for up to 600 s and was triggered by switching from a sample solution to a running buffer. The surface was regenerated by washing with a 10 mM glycine solution (pH 1.5) for 30 s at a flow rate of 30 μL/min. Bulk refractive index difference was corrected by subtracting the response obtained from the goat anti-human Fc surface. Blank injection was also subtracted (=double reference). For calculation of apparent KD and other kinetic parameters, Langmuir 1:1 model was used.

Human CD16a (158V)-his = target: T7, Human CD16a (158V)-his (human); experiment: SPR (Biacore), antibody captured on Protein A
T7 construct: entry holds ECD, AVI tag, linker and His tag
Experimental: as §4

[9] = target: T1, human CD16a (158F), full length, on …; experiment: FACS, biotinylated antibody, +10 mg/mL human immunoglobulin
Experimental: as §1, with “The” for “The required cells were scale-up cultured in a T-75 cell culture flask to the logarithmic growth phase. The”
as §3

[10] = target: T2, human CD16a (158V), full length, on …; experiment: as above
Experimental: as §1, with “The” for “The required cells were scale-up cultured in a T-75 cell culture flask to the logarithmic growth phase. The”
as §3

- EC50 [1]: 0.25 nM
- Maximum mean fluorescence intensity [1]: 5190
- EC50 [2]: 0.32 nM
- Maximum mean fluorescence intensity [2]: 5970
- EC50 [3]: 0.35 nM
- Maximum mean fluorescence intensity [3]: 52900
- Maximum mean fluorescence intensity [4]: 113
- binding result [4]: no binding (tested: 100 nM)
- EC50 [5]: 0.22 nM
- Maximum mean fluorescence intensity [5]: 2330
- EC50, activation activity for Jurkat cell [6]: 0.02 nM
- Maximum fluorescence value [6]: 174000
- EC50 [7]: 0.24 nM
- Maximum mean fluorescence intensity [7]: 4160
- EC50 [8]: 0.22 nM
- Maximum mean fluorescence intensity [8]: 5970
- Kd (Human CD16a (158F)-his): 67.2 nM
- koff (Human CD16a (158F)-his): 0.00451 s⁻¹
- kon (Human CD16a (158F)-his): 67200 M⁻¹ s⁻¹
- Kd (Human CD16a (158V)-his): 22.7 nM
- koff (Human CD16a (158V)-his): 0.00249 s⁻¹
- kon (Human CD16a (158V)-his): 110000 M⁻¹ s⁻¹
- EC50 [9]: 0.87 nM
- Maximum mean fluorescence intensity [9]: 5520
- EC50 [10]: 0.85 nM
- Maximum mean fluorescence intensity [10]: 7900
B1: VHH07 VHH-Fc antibody (Fc fusion)
chain: EVQLVESGGGLVQAGGSLRLSCVASRSTLTTYAVRWYRQAPGKQREWVAFISVDGKTNYPDSVKGRFIVSRDNAKNTVYLQMNSLKPEDTADYICRAGGQYWGQGTQVTVSSEPKSSDKTHTCPPCPAPEFEGGPSVFLFPPKPKDTLMISRTPEVTCVVVAVSHEDPEVKFNWYVDGVEVHNAKTKPREEQYNSTYRVVSVLTVLHQDWLNGKEYKCKVSNKALPAPIEKTISKAKGQPREPQVYTLPPSREEMTKNQVSLTCLVKGFYPSDIAVEWESNGQPENNYKTTPPVLDSDGSFFLYSKLTVDKSRWQQGNVFSCSVMHEALHNHYTQKSLSLSPGK

- EC50 [1]: 0.47 nM
- Maximum mean fluorescence intensity [1]: 5550
- EC50 [2]: 0.69 nM
- Maximum mean fluorescence intensity [2]: 6240
- EC50 [3]: 0.3 nM
- Maximum mean fluorescence intensity [3]: 48200
- Maximum mean fluorescence intensity [4]: 143
- binding result [4]: no binding (tested: 100 nM)
- EC50 [5]: 0.76 nM
- Maximum mean fluorescence intensity [5]: 2420
- EC50, activation activity for Jurkat cell [6]: 0.03 nM
- Maximum fluorescence value [6]: 159000
- EC50 [7]: 0.39 nM
- Maximum mean fluorescence intensity [7]: 5140
- EC50 [8]: 0.64 nM
- Maximum mean fluorescence intensity [8]: 7640
- Kd (Human CD16a (158F)-his): 50.2 nM
- koff (Human CD16a (158F)-his): 0.00309 s⁻¹
- kon (Human CD16a (158F)-his): 61600 M⁻¹ s⁻¹
- Kd (Human CD16a (158V)-his): 16.1 nM
- koff (Human CD16a (158V)-his): 0.00178 s⁻¹
- kon (Human CD16a (158V)-his): 110000 M⁻¹ s⁻¹
- EC50 [9]: 1.35 nM
- Maximum mean fluorescence intensity [9]: 6500
- EC50 [10]: 1.74 nM
- Maximum mean fluorescence intensity [10]: 9480
B2: VHH09 VHH-Fc antibody (Fc fusion)
chain: B1 chain with L4V, R26T, K56N

- EC50 [1]: 0.56 nM
- Maximum mean fluorescence intensity [1]: 4240
- EC50 [2]: 0.81 nM
- Maximum mean fluorescence intensity [2]: 4710
- EC50 [3]: 0.18 nM
- Maximum mean fluorescence intensity [3]: 38600
- Maximum mean fluorescence intensity [4]: 149
- binding result [4]: no binding (tested: 100 nM)
- EC50, activation activity for Jurkat cell [6]: 0.02 nM
- Maximum fluorescence value [6]: 178000
- EC50 [7]: 0.85 nM
- Maximum mean fluorescence intensity [7]: 3940
- EC50 [8]: 0.71 nM
- Maximum mean fluorescence intensity [8]: 5660
- Kd (Human CD16a (158F)-his): 80.5 nM
- koff (Human CD16a (158F)-his): 0.00559 s⁻¹
- kon (Human CD16a (158F)-his): 69500 M⁻¹ s⁻¹
- Kd (Human CD16a (158V)-his): 22.1 nM
- koff (Human CD16a (158V)-his): 0.00266 s⁻¹
- kon (Human CD16a (158V)-his): 120000 M⁻¹ s⁻¹
- EC50 [9]: 1.08 nM
- Maximum mean fluorescence intensity [9]: 6060
- EC50 [10]: 1.24 nM
- Maximum mean fluorescence intensity [10]: 8840
B3: VHH08 VHH-Fc antibody (Fc fusion)
chain: B1 chain with L4V, T30S, K43N, K56N
